Measured values as given in the supplement of paper PMC10567573.

B1: RHOBTB3 (parent)
chain: STTEGIQLAKELGATYLELHSLDD

Variants of: B1
Assay: protein stability index of a GFP-peptide fusion (GPS, HEK-293T) (PSI 1-6); higher = more stable
Conditions: c terminus: a fixed tail appended
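Also: lentivirally expressed fusions sorted by FACS into six bins by GFP to DsRed ratio, PSI derived from sequencing read proportions per bin multiplied by bin number.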

Protein stability index: each site, then its substitutions
S1: R 3.64, V 3.06, E 4.26
T2: W 1.58, A 3.58, Q 3.85, Y 2.37, N 4.11, V 2.81, I 2.07
E18: R 2.96, G 3.72, N 4.02, I 1.86, A 3.22, F 2, H 3.07
D23: C 1.87, Y 2.42, R 2.81, P 3.66, F 1.71, N 3.13
L22: P 4.54, V 4.3, W 3.45, M 4.32, C 4.01, T 4.15
L17: Y 4.12, R 3.94, K 4.83, N 4.6, M 4.11, D 5.55, I 2.9, F 3.27
Q7: N 3.24, P 3.65, F 3.37, Y 3.52, W 2.5, M 2.86, H 3.99, A 3.7
L12: K 5.07, M 4.48, F 3.89, G 4.89
E4: F 2.29, Y 2.27, N 3.58, W 2.58, L 1.83
T15: P 3.37, S 3.71, K 4.33, R 3.83, L 2.1, H 2.69, D 4.41, G 3.97, E 4.87, Y 3.49, I 1.99, C 3.59
A14: I 3.31, W 1.75, S 4.02, Y 3.7
S21: N 4, F 1.64, H 3.38, C 3.14, K 3.02, D 4.49, R 2.86, P 4.06
L19: P 5.37, S 5.01, H 5.02, A 4.63, F 4.21, T 4.96, I 2.38, N 5, K 5.37
G5: E 3.31, P 4.09, M 2.15, R 3.89, K 3.73, A 3.23, H 3.26, Q 3.94, I 1.92
E11: M 3.19, T 3.61, L 2.19, C 3.42, Q 3.89, D 4.01, W 1.73
A9: H 4.38, V 2.53, C 3.08, P 4.49, Q 3.52, D 4.64, L 1.19, Y 3.12, R 3.01
Y16: F 3.27, V 3.59, G 4.83, R 4.18, P 5.66, S 4.84
I6: H 4.62, Q 4.54, G 4.9, C 5.12, K 3.94, F 2.59
H20: A 2.73, V 1.65, Y 2.44, P 4.93, E 3.45, T 3.15, W 1.93, D 4.95
K10: N 2.84, W 1.5, T 1.84, P 4.33, E 4.35, H 3.15
L8: M 4.11, K 4.78, V 4.44, F 4.24, I 4.41, Q 5.2, H 4.53, Y 4.97, A 4.29, T 4.97, R 4.41
G13: P 4.81, H 2.09, N 2.64, W 1.39, I 2.79, L 1.28, T 2.72, S 3.35
D24: I 2.7, H 2.44, V 1.57, A 2.17
T3: D 3.97, G 4.01, C 2.22, E 4.19, F 2.29, Q 2.84
